Source: patent US12643935B2, “PD-L1 binding peptides” (UNIVERSITY OF SOUTHERN CALIFORNIA, priority 2020, dated 2026)
“Also recorded” adds a separate entry of the source. One block for each substance: values may come before it. Where no end group is shown, it is not given here. [ ]: non-standard residue; d: D form. NMeNle = CCCC[C@H](NC)C(=O)O; NMeA = CN[C@@H](C)C(=O)O

Assays:
[1] = target: T1, hPD-L1 (Homo sapiens, UniProt Q9NZQ7); assay: Radiolabeled [35S] peptide binding assay on immobilized hPD-L1; design: designed from A18 to T239 with a methionine added to the N-terminus; hexahistidine tag (C); made in house; conditions: for hPD-L1 binding of SPAM alanine mutant normalized to SPAM: [35S]-labeled variants, n=3
Method: [^35S]-labeled peptides were translated as described above by including 2 μCi labeled methionine (Perkin Elmer) per 10 pmol of template in the translation reaction. Each peptide was tested with a […] (for X9-library derived peptides) (SEQ ID NO: 11) or a […] (for X17-library derived peptides) (SEQ ID NO: 12) C-terminal sequence. […] The supernatant was removed and was counted. The beads were subsequently washed three times with 1 mL of blocking buffer and the washes were also counted. Finally, the beads were resuspended in 1 mL of blocking buffer and were counted separately. The ratio of the counts remaining on the beads to the total counts added to the binding reaction (the sum of the counts for supernatant, washes, and beads) was calculated to determine the percent bound.

[2] = system: hPD-L1; conditions: known peptides; cited from earlier work
[3] = target: T1, hPD-L1; assay: Radioactive binding assay of second-generation clones on immobilized human PD-L1; design: target for immobilization and selection, the extracellular domain of hPD-L1 (from A18 to T239); hexahistidine tag (C); conditions: 22° C., 2.5 or 12.5 pmol immobilized PD-L1
[4] = target: T1, hPD-L1; assay: Binding of second-generation fusions after RNase treatment and in 25% human serum; design: target for immobilization and selection, the extracellular domain of hPD-L1 (from A18 to T239); hexahistidine tag (C); conditions: 22° C., 25 pmol PD-L1; for binding to hPD-L1 after RNase treatment: RNase A 30 min 37° C.; for binding to hPD-L1 in human serum: RNase-treated fusions in 25% human serum in DMEM
Method: The sequences identified from Sanger sequencing (A,B,C,D) were tested under binding conditions modified to be similar to physiological conditions and compared to the wildtype sequence (S) (FIG. 14). Sequences were prepared as fusions in standard blocking buffer, as RNase-treated fusions (RNase A treatment for 30 min. at 37° C.) in standard blocking buffer, or as RNase-treated fusions in 25% human serum in DMEM. Binding was measured at 22° C. with 0 and 25 pmol biotinylated PD-L1.

- hPD-L1 binding of SPAM alanine mutant normalized to SPAM [1]: little or no significant influence
Substance: 13A: SPAM variant, alanine substituted at position 3 (MPAFLDHILNKFWILHYAGSGSSGHHHHHHSS) [Peptide 13A]

- hPD-L1 binding of SPAM alanine mutant normalized to SPAM [1]: little or no significant influence
Substance: 18A: SPAM variant, alanine substituted at position 8 (MPIFLDHALNKFWILHYAGSGSSGHHHHHHSS) [Peptide 18A]

- hPD-L1 binding of SPAM alanine mutant normalized to SPAM [1]: completely abolished hPD-L1 binding
Substance: 114A: SPAM variant, alanine substituted at position 14 (MPIFLDHILNKFWALHYAGSGSSGHHHHHHSS) [Peptide 114A]

- hPD-L1 binding of SPAM alanine mutant normalized to SPAM [1]: completely abolished hPD-L1 binding
Substance: A18: SPAM variant, glycine substituted for alanine at position 18 (MPIFLDHILNKFWILHYGGSGSSGHHHHHHSS; not fully specified) [Peptide A18]

- hPD-L1 binding of SPAM alanine mutant normalized to SPAM [1]: little or no significant influence
Substance: F4A: SPAM variant, alanine substituted at position 4 (MPIALDHILNKFWILHYAGSGSSGHHHHHHSS) [Peptide F4A]

- hPD-L1 binding of SPAM alanine mutant normalized to SPAM [1]: completely abolished hPD-L1 binding
Substance: F12A: SPAM variant, alanine substituted at position 12 (MPIFLDHILNKAWILHYAGSGSSGHHHHHHSS) [Peptide F12A]

- hPD-L1 binding of SPAM alanine mutant normalized to SPAM [1]: completely abolished hPD-L1 binding
Substance: H7A: SPAM variant, alanine substituted at position 7 (MPIFLDAILNKFWILHYAGSGSSGHHHHHHSS) [Peptide H7A]

- hPD-L1 binding of SPAM alanine mutant normalized to SPAM [1]: completely abolished hPD-L1 binding
Substance: H16A: SPAM variant, alanine substituted at position 16 (MPIFLDHILNKFWILAYAGSGSSGHHHHHHSS) [Peptide H16A]

- hPD-L1 binding of SPAM alanine mutant normalized to SPAM [1]: completely abolished hPD-L1 binding
Substance: K11A: SPAM variant, alanine substituted at position 11 (MPIFLDHILNAFWILHYAGSGSSGHHHHHHSS) [Peptide K11A]

- hPD-L1 binding of SPAM alanine mutant normalized to SPAM [1]: little or no significant influence
Substance: L5A: SPAM variant, alanine substituted at position 5 (MPIFADHILNKFWILHYAGSGSSGHHHHHHSS) [Peptide L5A]

- hPD-L1 binding of SPAM alanine mutant normalized to SPAM [1]: little or no significant influence
Substance: L9A: SPAM variant, alanine substituted at position 9 (MPIFLDHIANKFWILHYAGSGSSGHHHHHHSS) [Peptide L9A]

- binding to immobilized human PD-L1 relative to parental SPAM (S) [3]: better binding than the parental SPAM
Substance: MKHSTDHVLNKFYIMHYTANPN [Peptide 9]

- binding to heavily loaded hPD-L1 beads ([1]; streptavidin agarose beads loaded with 1.1 μM hPD-L1 (1,100 pmol)): some binding
Substance: MRIFAVFIFMTYWHLLNA [hPD-L1 signal peptide]

- binding to immobilized human PD-L1 relative to parental SPAM (S) [3]: better binding than the parental SPAM
Substance: MYSHNDHNLNKFWILHFAVNQM [Peptide B]
- binding to hPD-L1 after RNase treatment [4]: significant net binding; also recorded: show binding
- binding to hPD-L1 in human serum [4]: significant net binding; also recorded: show binding

- binding to immobilized human PD-L1 relative to parental SPAM (S) [3]: better binding than the parental SPAM
Substance: MYSLNDHNLNKFWILHFAVNQM [Peptide 5]

- binding to immobilized human PD-L1 relative to parental SPAM (S) [3]: better binding than the parental SPAM
Substance: MYTQTDHTLNKFLIMHEAFNST [Peptide 3]

- binding to immobilized human PD-L1 relative to parental SPAM (S) [3]: better binding than the parental SPAM
Substance: MYTSTDHILNKFLILHESLQST [Peptide 6]

- hPD-L1 binding of SPAM alanine mutant normalized to SPAM [1]: decreased levels of hPD-L1 binding
Substance: P2A: SPAM variant, alanine substituted at position 2 (MAIFLDHILNKFWILHYAGSGSSGHHHHHHSS) [Peptide P2A]

- hPD-L1 binding of SPAM alanine mutant normalized to SPAM [1]: completely abolished hPD-L1 binding
Substance: W13A: SPAM variant, alanine substituted at position 13 (MPIFLDHILNKFAILHYAGSGSSGHHHHHHSS) [Peptide W13A]

Continued, substance first:

Substance: Cyclo[(AcPhe)(NMePhe)(NMeNle)(Sar)DV(NMePhe)Y(Sar)WYLC-Gly-NH2 [Peptide-71]
- EC50 [2]: 293 nM
- IC50 [2]: 7 nM

Substance: Cyclo[(AcPhe)NMeAla)NPHLSWSW(NMeNle)(NMeNle)RC]Gly-NH2 (Ac-F[NMeA]NPHLSWSW[NMeNle][NMeNle]RCG-NH2; bridge (positions not given here); also: cyclic, ring from residue 1 to Cys 14, linkage type not given here) [Peptide-57]
- EC50 [2]: 566 nM
- IC50 [2]: 9 nM

Substance: D6A: SPAM variant, alanine substituted at position 6 (MPIFLAHILNKFWILHYAGSGSSGHHHHHHSS) [Peptide D6A]
- hPD-L1 binding of SPAM alanine mutant normalized to SPAM [1]: completely abolished hPD-L1 binding

Substance: DYHDPSLPTLRK [CLP004]
- IC50 [2]: 1170 nM
- Kd [2]: 544 nM

Substance: HYPFRPHANQAS [CLP001]
- Kd [2]: 534 nM

Substance: KHAHHTHNLRLP [D-PPA-2]
- Kd [2]: 1130 nM

Substance: L15A: SPAM variant, alanine substituted at position 15 (MPIFLDHILNKFWIAHYAGSGSSGHHHHHHSS) [Peptide L15A]
- hPD-L1 binding of SPAM alanine mutant normalized to SPAM [1]: completely abolished hPD-L1 binding

Substance: MEFTSDHSLNKFIILHYANNPF [Peptide C]
- binding to immobilized human PD-L1 relative to parental SPAM (S) [3]: comparable binding to the most frequent sequences; also recorded: better binding than the parental SPAM
- binding to hPD-L1 after RNase treatment [4]: significant net binding; also recorded: show binding
- binding to hPD-L1 in human serum [4]: significant net binding; also recorded: show binding

Substance: MWSITDHNLNKFWILHYATKHG
- binding to immobilized human PD-L1 relative to parental SPAM (S) [3]: better binding than the parental SPAM
- binding to hPD-L1 after RNase treatment [4]: significant net binding; also recorded: show binding
- binding to hPD-L1 in human serum [4]: significant net binding; also recorded: show binding

Substance: MWSRSDHNLNKFWILHYSANPS [Peptide 7]
- binding to immobilized human PD-L1 relative to parental SPAM (S) [3]: better binding than the parental SPAM

Substance: MYSRVDHNLNKFWILHQALKSN [Peptide 8]
- binding to immobilized human PD-L1 relative to parental SPAM (S) [3]: better binding than the parental SPAM

Substance: MYTDADHILNKFLIMHYARNQQ [Peptide 1]
- binding to immobilized human PD-L1 relative to parental SPAM (S) [3]: better binding than the parental SPAM

Substance: MYTLTDHILNKFWIMHYARNPT
- binding to immobilized human PD-L1 relative to parental SPAM (S) [3]: comparable binding to the most frequent sequences; also recorded: better binding than the parental SPAM
- binding to hPD-L1 after RNase treatment [4]: significant net binding; also recorded: show binding
- binding to hPD-L1 in human serum [4]: significant net binding; also recorded: show binding

Substance: N10A: SPAM variant, alanine substituted at position 10 (MPIFLDHILAKFWILHYAGSGSSGHHHHHHSS) [Peptide N10A]
- hPD-L1 binding of SPAM alanine mutant normalized to SPAM [1]: completely abolished hPD-L1 binding

Substance: NYSKPTDRQYHF [D-PPA-1]
- Kd [2]: 510 nM

Substance: SGQYASYHCWCWRDPGRSGGSK [TPP-1]
- Kd [2]: 95 nM

Substance: WHFSYNWRWLPP [CLP003]
- IC50 [2]: 2220 nM
- Kd [2]: 117 nM

Substance: WHRSYYTWNLNT [CLP002]
- IC50 [2]: 2170 nM
- Kd [2]: 366 nM

Substance: Y18A: SPAM variant, alanine substituted for tyrosine (position 17 of SPAM) (MPIFLDHILNKFWILHAAGSGSSGHHHHHHSS) [Peptide Y18A]
- hPD-L1 binding of SPAM alanine mutant normalized to SPAM [1]: decreased levels of hPD-L1 binding
